# In publication PMC4161475:
# Target: G-actin (rabbit skeletal muscle actin, monomeric) (rabbit) (UniProt P68135)
# Assay: ELISA; solid-phase assay: wells coated with 5 µM G-actin in PBS, 5 µM protein added, detected with anti-EhCoactosin antibody; in the presence of Ca2+ (2 mM) or EGTA (5 mM)
substance,measurement,value
EhCoactosin with the C-terminal 14 residues deleted (domain or fragment),percent decrease in binding against WT,33%
